According to patent US20150299764A1, “IMMOBILISED CYCLIN-DEPENDENT KINASE 4 FUSION PROTEINS AND USES THEREOF” (UNIVERSITE LIBRE DE BRUXELLES, priority 2012, published 2015):

B1: D3L2K4: cyclin D3 and CDK4 connected by the linker L2, SEQ ID NO. 10 (protein)
chain: MELLCCEGTRHAPRAGPDPRLLGDQRVLQSLLRLEERYVPRASYFQCVQREIKPHMRKMLAYWMLEVCEEQRCEEEVFPLAMNYLDRYLSCVPTRKAQLQLLGAVCMLLASKLRETTPLTIEKLCIYTDHAVSPRQLRDWEVLVLGKLKWDLAAVIAHDFLAFILHRLSLPRDRQALVKKHAQTFLALCATDYTFAMYPPSMIATGSIGAAVQGLGACSMSGDELTELLAGITGTEVDCLRACQEQIEAALRESLREASQTSSSPAPKAPRGSSSQGPSQTSTPTDVTAIHLASKGGGGSLEVLFQPSRMATSRYEPVAEIGVGAYGTVYKARDPHSGHFVALKSVRVPNGGGGGGGLPISTVREVALLRRLEAFEHPNVVRLMDVCATSRTDREIKVTLVFEHVDQDLRTYLDKAPPPGLPAETIKDLMRQFLRGLDFLHANCIVHRDLKPENILVTSGGTVKLADFGLARIYSYQMALTPVVVTLWYRAPEVLLQSTYATPVDMWSVGCIFAEMFRRKPLFCGNSEADQLGKIFDLIGLPPEDDWPRDVSLPRGAFPPRGPRPVQSVVPEMEESGAQLLLEMLTFNPHKRISAFRALQHSYLHKDEGNPE
B2: D3L3K4: cyclin D3 and CDK4 connected by the Prescission-cleavable linker L3, SEQ ID NO. 79 (protein)
chain: B1 chain

Experiments:
[1] = target: T1, CDK7AS (mutated version of CDK7) in HCT116K7AS cells (Homo sapiens, UniProt P50613, D92E/F91G); test: Rb kinase activity of streptavidin-immobilized Avi-tagged cyclin D3/CDK4 fusion from HCT116K7AS cells treated with serum and CDK7AS inhibitor; format: cell-based
T1 construct: These cells express only a mutated version of CDK7 (CDK7AS); endogenous in cells; host or cells: HCT116K7AS cells transduced with the Avi-tagged cyclin D3/CDK4 reporter (HCT116K7AS-V26)
Protocol: In order to verify if transgenes expressed in HCT116K7AS cells after transduction with the vectors described in Example 8 could be immobilized on streptavidin-coated sepharose beads and were enzymatically active, the HCT116K7AS cells expressing the cyclin D3/CDK4 fusion protein described in the Example 14 were cultivated in 6 cm Petri dishes with 10 ml DMEM medium supplemented with 10% serum, Sodium pyruvate (1 mM), Penicillin (50 U/ml) and Streptomycin (50 μg/ml). These cells express only a mutated version of CDK7 (CDK7AS) inhibitable by bulky ATP analogs such as 1-NMPP1 (Santa Cruz). The cells were rendered quiescent by incubating them for three days in DMEM without serum, but supplemented with biotin (0.1 mM), Sodium pyruvate (1 mM), Penicillin (50 U/ml) and Streptomycin (50 μg/ml). Cells were stimulated to proliferate by adding 10% serum for 5 or 16 hours in the continuous presence of biotin (0.1 mM). As indicated, vehicle (DMSO) or CDK7AS inhibitor (1-NMPP1) were added together with serum for the same time or for an additional pulse of 1 hour. […]
The pRb kinase assay was performed on the cellular extract bound to the streptavidin-coated sepharose beads as described previously (Coulonval et al., supra). […] The phosphorylation on T826 of the pRb fragment was detected using a phospho-specific anti-pRb (T826) antibody (Epitomics). […]

[2] = tested on: 48-kDa fragment (amino acid 773-928) of pRb; test: pRb kinase assay on HEK293T cell extract bound to streptavidin-coated sepharose beads; format: biochemical; settings: transiently transfected HEK293T cells, P-Rb T826 immunoblot
Protocol: In order to verify if the transgenes expressed in HEK293T cells after transient transfection could be immobilized on streptavidin-coated sepharose bead and were enzymatically active, HEK293T cells were cultivated and transfected with the indicated plasmids as described in Example 12.
After transfection, cells were washed with PBS and lysed on ice in 1 ml NP-40 lysis buffer as described in Example 11. The homogenized (glass/glass) cellular lysate was sonicated 3 times and stored at −20° C. Equal amount of protein from the defrozen lysates were then incubated for 3 h at 4° C. under slight shaking with 5 μl of streptavidin-coated sepharose beads (GE Healthcare) which had been prewashed three times with NP-40 lysis buffer without inhibitors. After 3 h, beads bound with transgene are washed three times with cold NP-40 lysis buffer without inhibitors before enzymatic activities are measured.
The pRb kinase assay was performed on the cellular extract bound to the streptavidin-coated sepharose beads as described previously (Coulonval et al., 2003, Exp. Cell Res., 291, 135-149). […] Proteins were resolved by SDS-PAGE and transferred on PVDF membranes (Perkin Elmer) before the phosphorylation on T826 of the pRb fragment was detected using the phosphor-specific pRb (T826) antibody (Thermo Fisher). […]
The pRb kinase assay was performed on the cellular extract bound to the streptavidin-coated sepharose beads (GE Healthcare) as described previously (Coulonval et al., 2003, Exp. Cell Res., 291, 135-149). […] Proteins were resolved by SDS-PAGE and transferred on low fluorescence PVDF membranes (Millipore) before the phosphorylation on T826 of the pRb fragment was detected using a phospho-specific rabbit anti-pRb (T826) antibody (Epitomics). Total GST-Rb load of the membranes was quantitated using the mouse anti-GST antibody (Pierce). […]

[3] = tested on: 48-kDa fragment (aa 773-928) of pRb; test: pRb kinase assay on MCF7 cell extract bound to streptavidin-coated sepharose beads; format: biochemical
Protocol: In order to verify if transgenes expressed in MCF7 cells after transduction with the vectors described in Example 8 could be immobilized on streptavidin-coated sepharose bead and were enzymatically active, the MCF7 cells expressing the luciferase or the cyclin D3/CDK4 fusion protein described in the Example 14 were cultivated in 10 cm Petri dishes with 10 ml DMEM medium supplemented with 5% serum, insulin 6 ng/ml, NEAA (Gibco) 0.1 mM, Sodium pyruvate (1 mM), Penicillin (50 U/ml) and Streptomycin (50 μg/ml). The cells were rendered quiescent by incubating them for three days in phenol-free DMEM without serum and insulin, but supplemented with biotin (0.1 mM), NEAA (0.1 mM, Gibco), Sodium pyruvate (1 mM), Penicillin (50 U/ml) and Streptomycin (50 μg/ml). During the last 24 hours, fulvestrant (10 nM) was added to the culture to block estrogen receptor action. Cells were stimulated to proliferate by adding 5% serum, 6 ng/ml insulin and 100 nM β-estradiol in the culture medium for 16 hours in the continuous presence of biotin (0.1 mM). At the end of the culture, cells were washed with PBS and lysed on ice in 1 ml NP-40 lysis buffer as described in Example 10. The homogenized (glass/glass) cellular lysate was sonicated 3 times and stored at −20° C. Equal amounts of protein from the defrozen lysate were then incubated for 3 h at 4° C. under slight shaking with 5 μl of streptavidin-coated sepharose beads which had been prewashed three times with NP-40 lysis buffer without inhibitors. After 3 h, beads bound with transgene were washed three times with cold NP-40 lysis buffer without inhibitors before enzymatic activities were measured.
The pRb kinase assay was performed on the cellular extract bound to the streptavidin-coated sepharose beads as described previously (Coulonval et al., supra). […] Proteins were resolved by SDS-PAGE and transferred on PVDF membranes (Perkin Elmer) before the phosphorylation on T826 of the pRb fragment was detected using the phospho-specific anti-pRb (T826) antibody (Thermo Fisher). […]

T1 sequence (P50613 whole entry F91G/D92E, the tested form may be a part): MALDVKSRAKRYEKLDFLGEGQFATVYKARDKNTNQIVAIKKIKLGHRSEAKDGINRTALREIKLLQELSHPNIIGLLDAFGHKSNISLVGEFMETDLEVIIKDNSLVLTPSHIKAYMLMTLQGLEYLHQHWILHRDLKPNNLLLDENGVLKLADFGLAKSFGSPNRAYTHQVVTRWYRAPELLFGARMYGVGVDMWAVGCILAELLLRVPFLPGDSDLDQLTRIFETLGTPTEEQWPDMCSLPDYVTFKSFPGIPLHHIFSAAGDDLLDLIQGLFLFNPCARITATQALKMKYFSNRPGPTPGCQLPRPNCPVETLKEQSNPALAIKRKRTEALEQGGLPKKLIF
T1 sequence (P51946 whole entry partner, the tested form may be a part): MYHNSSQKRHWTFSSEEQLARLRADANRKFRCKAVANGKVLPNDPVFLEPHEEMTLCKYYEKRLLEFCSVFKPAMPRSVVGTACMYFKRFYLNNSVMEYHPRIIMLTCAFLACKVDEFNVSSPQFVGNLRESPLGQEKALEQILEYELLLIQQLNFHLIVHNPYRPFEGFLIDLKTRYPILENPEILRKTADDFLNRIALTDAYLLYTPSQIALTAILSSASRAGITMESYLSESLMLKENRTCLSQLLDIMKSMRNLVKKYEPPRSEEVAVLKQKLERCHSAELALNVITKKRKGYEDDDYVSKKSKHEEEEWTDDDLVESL
T1 sequence (P51948 whole entry partner, the tested form may be a part): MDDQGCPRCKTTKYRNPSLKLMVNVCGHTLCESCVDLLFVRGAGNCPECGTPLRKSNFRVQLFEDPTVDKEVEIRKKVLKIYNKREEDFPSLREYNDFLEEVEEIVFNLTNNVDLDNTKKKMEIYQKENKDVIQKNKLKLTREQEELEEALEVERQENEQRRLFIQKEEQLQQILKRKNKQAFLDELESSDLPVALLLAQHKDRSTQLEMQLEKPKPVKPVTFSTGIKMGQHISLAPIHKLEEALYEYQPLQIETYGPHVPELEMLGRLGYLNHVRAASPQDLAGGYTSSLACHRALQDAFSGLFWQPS

Molecule | serum stimulation of Rb kinase activity of the biotinylatable Cyclin D3/CDK4 fusion ([1]; inhibitor added during the last hour of 17 hours serum stimulation, HCT116K7AS (FIG. 12)) | serum induction of Rb kinase activity of the biotinylatable Cyclin D3/CDK4 fusion ([1]; inhibitor present together with serum for 5 hours, HCT116K7AS, P-Rb T826 immunoblot (FIG. 12)) | Rb kinase activity of the immobilized fusion protein [2] | Rb kinase activity of the immobilized fusion protein ([2]; listed as cyclin D3/CDK4) | Rb kinase activity of the immobilized fusion protein ([3]; 16 h after serum/insulin/β-estradiol stimulation of MCF7 cells (FIG. 11B, lane 8)) | Rb kinase activity of the immobilized fusion protein ([3]; quiescent MCF7 cells (FIG. 11B, lane 7)) | Rb kinase activity of the immobilized fusion protein ([3]; stable MCF7 populations cultivated with 5% serum and insulin (FIG. 16))
CC(C)(C)n1nc(Cc2cccc3ccccc23)c2c(N)ncnc21 [1-NMPP1] | severely impaired | prevented | – | – | – | – | –
B1 | – | – | No difference in Rb-kinase activity | active | strongly enhanced | detectable | –
B2 | – | – | No difference in Rb-kinase activity | – | – | – | only detected
